Experimental data reported in the supplement of paper PMC9732359.
± gives the uncertainty stated by the source.

Assay: protein stability index of a GFP-peptide fusion (yeast GPS) (PSI 1-4); higher = more stable; sorted into four equal gates, so the index is relative within each strain
Summary of the method: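 Sequencing reads from sorted gates were used to score each peptide. The library consisted of tiled 17-residue yeast protein peptides fused downstream of GFP on a Cherry-expressing plasmid, pooled and carried in yeast. Mid-log cultures in leucine-free medium were split into four equal gates by GFP/Cherry ratio, and each gate's plasmids were PCR-amplified and Illumina-sequenced. The protein stability index adds up, over all gates, the read frequency multiplied by the gate number.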

Row | Sequence | protein stability index (doa10∆) | protein stability index (pdr5∆) | protein stability index (san1∆) | protein stability index (ubr1∆)
1 | YTQYTNDYLEKHSVTEY [CDC53] | 2.55 ± 0.1 | 2.45 ± 0.075 | 2.81 ± 0.071 | 3.13 ± 0.092
2 | DSKDGTTLNIKVEKRVL [SMB1] | – | 3.66 ± 0.22 | – | 3.45 ± 0.27
3 | LVQLSTMETKTLPEKKQ [SIR4] | 2.88 ± 0.063 | 2.9 ± 0.069 | 2.72 ± 0.052 | 2.99 ± 0.059
4 | MKTNVHTQANEPNSAKK [RGR1] | 3.02 ± 0.11 | 3.14 ± 0.089 | 3.06 ± 0.086 | 3.24 ± 0.11
5 | EFVNGGKVVKNVLLLDS [RRP46] | 2.42 ± 0.17 | 2.02 ± 0.069 | 1.34 ± 0.2 | 1.9 ± 0.11
6 | MEGNAQPVNFNRSWDHA [RPO31] | 2.22 ± 0.11 | 2.31 ± 0.071 | 2.39 ± 0.13 | 2.35 ± 0.067
7 | KLKFFPSGEALISSSQD [RPN14] | 2.92 ± 0.23 | – | – | –
8 | LTKKEKKEANLFPEQQN [RPL6A] | 3.08 ± 0.072 | 3.2 ± 0.072 | 3.25 ± 0.06 | 3.16 ± 0.048
9 | KLFNKWSFEEVEVKDAS [RPS5] | 2.17 ± 0.087 | 1.77 ± 0.072 | 1.4 ± 0.15 | 1.67 ± 0.06
10 | NQVTDSSQLNKLTDEQS [SIR3] | 2.71 ± 0.063 | 2.74 ± 0.069 | 2.82 ± 0.07 | 2.68 ± 0.072
11 | ACVPLLPPPEDVAFLKT [RPN1] | 2.65 ± 0.053 | 2.4 ± 0.053 | 2.79 ± 0.043 | 2.65 ± 0.048
12 | DEHHESFELKEEDISDL [RRP6] | 3.01 ± 0.072 | 3.23 ± 0.084 | 2.9 ± 0.075 | 3.15 ± 0.059
13 | KEKIQHELGINIDSLKF [BRR2] | 3.19 ± 0.065 | 3.07 ± 0.053 | 3.05 ± 0.043 | 3.22 ± 0.06
14 | IGIMASDGIVLAAERKV [PRE9] | 2.79 ± 0.29 | – | 3.37 ± 0.15 | –
15 | PIQSKVFHAAFEGDSNM [BRR2] | 2.91 ± 0.055 | 3.02 ± 0.051 | 2.92 ± 0.063 | 2.9 ± 0.032
16 | KDGETTDANGKTIVTGG [RPO26] | 3.39 ± 0.076 | 3.32 ± 0.047 | 3.37 ± 0.059 | 3.33 ± 0.047
17 | SKLAEEKIRAAGGVVEL [RPL28] | 2.85 ± 0.04 | 3.08 ± 0.034 | 3.09 ± 0.037 | 2.943 ± 0.025
18 | IASKMSLAPEADLDSLI [RPT3] | 2.62 ± 0.1 | 2.81 ± 0.13 | 2.1 ± 0.12 | 3.07 ± 0.19
19 | KESDESKSAFSFGSKPT [YJL041W/NSP1] | 3.1 ± 0.048 | 3.22 ± 0.061 | 3.198 ± 0.029 | 3.108 ± 0.031
20 | DNCCDFKVRTNLNDKFG [MED1] | 2.74 ± 0.19 | 3.22 ± 0.2 | 2.79 ± 0.15 | 3.08 ± 0.092
21 | IGQLMAFDKHMNLVLNE [SMB1] | 2.04 ± 0.15 | 2.39 ± 0.2 | 2.72 ± 0.16 | 2.57 ± 0.051
22 | FMSNDGPTLEKYISAEL [SNU114] | 2.18 ± 0.069 | 2.83 ± 0.078 | 3.03 ± 0.054 | 3.24 ± 0.082
23 | LYAIKKVTLNKETQQYE [BRR2] | 3.03 ± 0.15 | 3.21 ± 0.13 | 2.99 ± 0.094 | 3.36 ± 0.081
24 | SSDDLQNCWSLINDSYI [SSN8] | 1.94 ± 0.068 | 2.03 ± 0.081 | 1.53 ± 0.11 | 1.74 ± 0.064
25 | TFSSSISTYISTDELVG [POP8] | 3.02 ± 0.087 | 2.93 ± 0.057 | 2.9 ± 0.072 | 3.02 ± 0.069
26 | LRLCLDIVPYFLKHNGE [RPN1] | 2.3 ± 0.063 | 2.01 ± 0.037 | 1.71 ± 0.082 | 2.52 ± 0.074
27 | LNSLLTYIKSEITQQEK [SMC4] | 2.77 ± 0.066 | 2.04 ± 0.055 | 2.73 ± 0.071 | 2.63 ± 0.06
